Patent publication US20260167721A1 (ABLEXIS, published 2026)

B1: CD3 × CD33-BspAb86 (bispecific antibody)
chain 1: EVQLVESGGGLVKPGGSLRLSCAASGFTFSSYSMNWVRQAPGKCLEWVSSISRSGTYIYYADSVKGRFTISRDNAKNSLYLQMNSLRAEDTAVYYCARERWELLYFDYWGQGTLVTVSSGGGGSGGGGSGGGGSGGGGSQTVVTQEPSLTVSPGGTVTLTCASSTGAVTSGYYPNWFQQKPGQAPRALIYSTSNKHSWTPARFSGSLLGGKAALTLSGVQPEDEAEYYCLLYYGGAYVFGCGTKVTVLDKTHTCPPCPAPEFEGGPSVFLFPPKPKDTLMISRTPEVTCVVVDVSHEDPEVKFNWYVDGVEVHNAKTKPREEQYNSTYRVVSVLTVLHQDWLNGKEYKCKVSNKALPASIEKTISKAKGQPREPQVYTLPPCREEMTKNQVSLWCLVKGFYPSDIAVEWESNGQPENNYKTTPPVLDSDGSFFLYSKLTVDKSRWQQGNVFSCSVMHEALHNHYTQKSLSLSPGK
chain 2: EVQLVQSGAEVKKPGSSVKVSCKASGYTITDSNIHWVRQAPGQSLEWIGYIYPYNGGTDYNQKFKNRATLTVDNPTNTAYMELSSLRSEDTAFYYCVNGNPWLAYWGQGTLVTVSSASTKGPSVFPLAPSSKSTSGGTAALGCLVKDYFPEPVTVSWNSGALTSGVHTFPAVLQSSGLYSLSSVVTVPSSSLGTQTYICNVNHKPSNTKVDKRVEPKSCDKTHTCPPCPAPEFEGGPSVFLFPPKPKDTLMISRTPEVTCVVVDVSHEDPEVKFNWYVDGVEVHNAKTKPREEQYNSTYRVVSVLTVLHQDWLNGKEYKCKVSNKALPASIEKTISKAKGQPREPQVCTLPPSREEMTKNQVSLSCAVKGFYPSDIAVEWESNGQPENNYKTTPPVLDSDGSFFLVSKLTVDKSRWQQGNVFSCSVMHEALHNRFTQKSLSLSPGK
chain 3: DIQLTQSPSTLSASVGDRVTITCRASESLDNYGIRFLTWFQQKPGKAPKLLMYAASNQGSGVPSRFSGSGSGTEFTLTISSLQPDDFATYYCQQTKEVPWSFGQGTKVEVKRTVAAPSVFIFPPSDEQLKSGTASVVCLLNNFYPREAKVQWKVDNALQSGNSQESVTEQDSKDSTYSLSSTLTLSKADYEKHKVYACEVTHQGLSSPVTKSFNRGEC
B2: CD3 × CD33-BspAb94 (bispecific antibody)
chain 1: NFMLTQPHSVSESPGKTVTISCTRSSGSIASNYVQWYQQRPGSSPTTVIYEDNQRPSGVPDRFSGSIDSSSNSASLTISGLKTEDEADYYCQSYDSSNRVFGCGTKLTVLGGGGSGGGGSGGGGSGGGGSEVQLVESGGGLVKPGGSLRLSCAASGFTFSSYTMNWVRQAPGKCLEWVSSITTSSSYIYYADSVKGRFTISRDNAKNSLYLQMNSLRAEDTAVYYCARVTFDAFDIWGQGTMVTVSSDKTHTCPPCPAPEFEGGPSVFLFPPKPKDTLMISRTPEVTCVVVDVSHEDPEVKFNWYVDGVEVHNAKTKPREEQYNSTYRVVSVLTVLHQDWLNGKEYKCKVSNKALPASIEKTISKAKGQPREPQVYTLPPCREEMTKNQVSLWCLVKGFYPSDIAVEWESNGQPENNYKTTPPVLDSDGSFFLYSKLTVDKSRWQQGNVFSCSVMHEALHNHYTQKSLSLSPGK
chain 2: EVQLVQSGAEVKKPGSSVKVSCKASGYTITDSNIHWVRQAPGQSLEWIGYIYPYNGGTDYNQKFKNRATLTVDNPTNTAYMELSSLRSEDTAFYYCVNGNPWLAYWGQGTLVTVSSASTKGPSVFPLAPSSKSTSGGTAALGCLVKDYFPEPVTVSWNSGALTSGVHTFPAVLQSSGLYSLSSVVTVPSSSLGTQTYICNVNHKPSNTKVDKRVEPKSCDKTHTCPPCPAPEFEGGPSVFLFPPKPKDTLMISRTPEVTCVVVDVSHEDPEVKFNWYVDGVEVHNAKTKPREEQYNSTYRVVSVLTVLHQDWLNGKEYKCKVSNKALPASIEKTISKAKGQPREPQVCTLPPSREEMTKNQVSLSCAVKGFYPSDIAVEWESNGQPENNYKTTPPVLDSDGSFFLVSKLTVDKSRWQQGNVFSCSVMHEALHNRFTQKSLSLSPGK
chain 3: DIQLTQSPSTLSASVGDRVTITCRASESLDNYGIRFLTWFQQKPGKAPKLLMYAASNQGSGVPSRFSGSGSGTEFTLTISSLQPDDFATYYCQQTKEVPWSFGQGTKVEVKRTVAAPSVFIFPPSDEQLKSGTASVVCLLNNFYPREAKVQWKVDNALQSGNSQESVTEQDSKDSTYSLSSTLTLSKADYEKHKVYACEVTHQGLSSPVTKSFNRGEC
B3: CD3 × CD33-BspAb90 (bispecific antibody)
chain 1: not shown
chain 2: EVQLVQSGAEVKKPGSSVKVSCKASGYTITDSNIHWVRQAPGQSLEWIGYIYPYNGGTDYNQKFKNRATLTVDNPTNTAYMELSSLRSEDTAFYYCVNGNPWLAYWGQGTLVTVSSASTKGPSVFPLAPSSKSTSGGTAALGCLVKDYFPEPVTVSWNSGALTSGVHTFPAVLQSSGLYSLSSVVTVPSSSLGTQTYICNVNHKPSNTKVDKRVEPKSCDKTHTCPPCPAPEFEGGPSVFLFPPKPKDTLMISRTPEVTCVVVDVSHEDPEVKFNWYVDGVEVHNAKTKPREEQYNSTYRVVSVLTVLHQDWLNGKEYKCKVSNKALPASIEKTISKAKGQPREPQVCTLPPSREEMTKNQVSLSCAVKGFYPSDIAVEWESNGQPENNYKTTPPVLDSDGSFFLVSKLTVDKSRWQQGNVFSCSVMHEALHNRFTQKSLSLSPGK
chain 3: DIQLTQSPSTLSASVGDRVTITCRASESLDNYGIRFLTWFQQKPGKAPKLLMYAASNQGSGVPSRFSGSGSGTEFTLTISSLQPDDFATYYCQQTKEVPWSFGQGTKVEVKRTVAAPSVFIFPPSDEQLKSGTASVVCLLNNFYPREAKVQWKVDNALQSGNSQESVTEQDSKDSTYSLSSTLTLSKADYEKHKVYACEVTHQGLSSPVTKSFNRGEC
B4: CD3 × CD33-BspAb105 (bispecific antibody)
chain 1: SYELTQPPSVSVSPGQTARITCSGDALPKKYAYWYQQKSGQAPVLVIYEDSKRPSGIPERFSGSSSGTMATLTISGAQVEDEADYYCYSTDSSGNHRVFGCGTKLTVLGGGGSGGGGSGGGGSGGGGSEVQLVESGGGLVKPGGSLRLSCAASGFTFSYYSMNWVRQAPGKCLEWVSSISRSTTYIYYADSVKGRFTISRDNAKNSLYLQMNSLRAEDTAVYYCARDGKGAIFLDYWGQGTLVTVSSDKTHTCPPCPAPEFEGGPSVFLFPPKPKDTLMISRTPEVTCVVVDVSHEDPEVKFNWYVDGVEVHNAKTKPREEQYNSTYRVVSVLTVLHQDWLNGKEYKCKVSNKALPASIEKTISKAKGQPREPQVYTLPPCREEMTKNQVSLWCLVKGFYPSDIAVEWESNGQPENNYKTTPPVLDSDGSFFLYSKLTVDKSRWQQGNVFSCSVMHEALHNHYTQKSLSLSPGK
chain 2: EVQLVQSGAEVKKPGSSVKVSCKASGYTITDSNIHWVRQAPGQSLEWIGYIYPYNGGTDYNQKFKNRATLTVDNPTNTAYMELSSLRSEDTAFYYCVNGNPWLAYWGQGTLVTVSSASTKGPSVFPLAPSSKSTSGGTAALGCLVKDYFPEPVTVSWNSGALTSGVHTFPAVLQSSGLYSLSSVVTVPSSSLGTQTYICNVNHKPSNTKVDKRVEPKSCDKTHTCPPCPAPEFEGGPSVFLFPPKPKDTLMISRTPEVTCVVVDVSHEDPEVKFNWYVDGVEVHNAKTKPREEQYNSTYRVVSVLTVLHQDWLNGKEYKCKVSNKALPASIEKTISKAKGQPREPQVCTLPPSREEMTKNQVSLSCAVKGFYPSDIAVEWESNGQPENNYKTTPPVLDSDGSFFLVSKLTVDKSRWQQGNVFSCSVMHEALHNRFTQKSLSLSPGK
chain 3: DIQLTQSPSTLSASVGDRVTITCRASESLDNYGIRFLTWFQQKPGKAPKLLMYAASNQGSGVPSRFSGSGSGTEFTLTISSLQPDDFATYYCQQTKEVPWSFGQGTKVEVKRTVAAPSVFIFPPSDEQLKSGTASVVCLLNNFYPREAKVQWKVDNALQSGNSQESVTEQDSKDSTYSLSSTLTLSKADYEKHKVYACEVTHQGLSSPVTKSFNRGEC

Tests used:
[1] = biological target: T1, CD3 on human donor PBMC / Pan T effector cells (human, UniProt P07766 23-207; P09693 23-182; P04234 22-171; P20963 22-164); assay: cell-based or functional assay
T1 sequence (P07766 23-207, chain 1 of 4): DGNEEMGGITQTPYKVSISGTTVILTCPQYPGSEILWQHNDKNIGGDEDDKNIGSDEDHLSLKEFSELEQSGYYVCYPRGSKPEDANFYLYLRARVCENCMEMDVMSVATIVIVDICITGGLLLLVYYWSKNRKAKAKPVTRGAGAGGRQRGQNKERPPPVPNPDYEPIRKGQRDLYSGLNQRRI
T1 sequence (P09693 23-182, chain 2 of 4): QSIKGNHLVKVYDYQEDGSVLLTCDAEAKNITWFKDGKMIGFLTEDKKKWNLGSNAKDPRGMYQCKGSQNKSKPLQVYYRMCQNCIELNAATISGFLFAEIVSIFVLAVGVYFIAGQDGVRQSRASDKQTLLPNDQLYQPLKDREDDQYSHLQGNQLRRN
T1 sequence (P04234 22-171, chain 3 of 4): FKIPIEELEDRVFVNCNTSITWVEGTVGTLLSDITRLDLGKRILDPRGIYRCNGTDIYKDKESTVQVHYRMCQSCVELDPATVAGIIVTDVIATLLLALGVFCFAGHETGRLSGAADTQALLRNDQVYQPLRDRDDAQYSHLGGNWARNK
T1 sequence (P20963 22-164, chain 4 of 4): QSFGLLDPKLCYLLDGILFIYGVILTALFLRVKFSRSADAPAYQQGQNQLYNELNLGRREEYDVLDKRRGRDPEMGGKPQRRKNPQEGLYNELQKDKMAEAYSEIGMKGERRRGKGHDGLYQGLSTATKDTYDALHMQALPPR

[2] = biological target: T1, CD3 on human donor PBMC / Pan T …; assay: cell-based or functional assay; remark: listed apart in the source

Row | Cytokine Release Assay (TNFα) Donor 0 EC50 [1] | Cytokine Release Assay (TNFα) Donor 0 gMFI max [1] | Cytokine Release Assay (TNFα) Donor 1 gMFI max [1] | Cytokine Release Assay (TNFα) Donor 2 EC50 [1] | Cytokine Release Assay (TNFα) Donor 2 gMFI max [1] | Cytokine Release Assay (TNFα) Donor 3 EC50 [1] | Cytokine Release Assay (TNFα) Donor 3 gMFI max [1] | Cytokine Release Assay (IL2) Donor 0 EC50 [2] | Cytokine Release Assay (IL2) Donor 0 gMFI max [2] | Cytokine Release Assay (IL2) Donor 1 EC50 [2] | Cytokine Release Assay (IL2) Donor 1 gMFI max [2] | Cytokine Release Assay (IL2) Donor 2 EC50 [2] | Cytokine Release Assay (IL2) Donor 2 gMFI max [2] | Cytokine Release Assay (IL2) Donor 3 EC50 [2] | Cytokine Release Assay (IL2) Donor 3 gMFI max [2] | Binder
1 | 2.15 nM | 34100 gMFI | 4900 gMFI | 2.19 nM | 10900 gMFI | 5.58 nM | 25200 gMFI | 4.13 nM | 34400 gMFI | 4.24 nM | 18800 gMFI | 6.46 nM | 22100 gMFI | 3.52 nM | 42100 gMFI | B1
2 |  | 5150 gMFI | 4670 gMFI |  | 4420 gMFI |  | 4110 gMFI |  | 13600 gMFI | 3.58 nM | 14800 gMFI |  | 12500 gMFI | 1.47 nM | 13900 gMFI | B2
3 | 0.136 nM | 61700 gMFI | 5330 gMFI | 0.0788 nM | 16000 gMFI | 0.0724 nM | 32800 gMFI | 0.0887 nM | 69600 gMFI | 0.0832 nM | 24300 gMFI | 0.0612 nM | 30000 gMFI |  | 79300 gMFI | B3
4 |  | 5210 gMFI | 4470 gMFI |  | 5500 gMFI |  | 4390 gMFI | 0.454 nM | 16900 gMFI | 0.232 nM | 13400 gMFI |  | 15900 gMFI | 0.141 nM | 18000 gMFI | B4
